Results reported in patent US20220056119A1 (Regeneron, published 2022).

Legend:
[1] = target: T1, Activin A (human, UniProt P08476 311-426); assay: cell-based or functional assay
T1 sequence: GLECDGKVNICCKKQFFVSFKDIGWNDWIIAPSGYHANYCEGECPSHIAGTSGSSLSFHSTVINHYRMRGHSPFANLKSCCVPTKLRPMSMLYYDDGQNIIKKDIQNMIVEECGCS

[2] = target: T2, Activin AB (human, UniProt P08476 311-426; P09529 293-407); assay: cell-based or functional assay
T2 chain 1: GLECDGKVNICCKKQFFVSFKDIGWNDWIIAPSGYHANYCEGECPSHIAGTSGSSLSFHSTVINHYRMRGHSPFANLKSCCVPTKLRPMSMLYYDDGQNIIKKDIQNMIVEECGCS
T2 chain 2: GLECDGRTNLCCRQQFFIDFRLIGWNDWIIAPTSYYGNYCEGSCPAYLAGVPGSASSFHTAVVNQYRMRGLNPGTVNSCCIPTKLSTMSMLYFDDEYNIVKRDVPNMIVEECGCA

[3] = target: T3, Activin AC (human, UniProt P55103 237-352); assay: cell-based or functional assay
T3 sequence 1: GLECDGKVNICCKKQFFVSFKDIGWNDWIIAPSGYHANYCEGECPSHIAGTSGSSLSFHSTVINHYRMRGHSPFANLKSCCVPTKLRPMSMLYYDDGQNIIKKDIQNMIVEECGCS
T3 sequence 2: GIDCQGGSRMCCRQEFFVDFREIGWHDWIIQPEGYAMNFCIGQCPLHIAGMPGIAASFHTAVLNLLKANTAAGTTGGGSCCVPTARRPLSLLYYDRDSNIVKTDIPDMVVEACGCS

[4] = target: T1, Activin A; assay: SPR, 5 nM Activin A + 30 nM binder over Follistatin-288 surface
Method: (§1) The binding signal (RU) was measured at 150 seconds after the start of the injection, and this signal was subtracted by the measured RU value for a negative control reference surface to determine the specific binding signal.

[5] = target: T1, Activin A; assay: SPR, 5 nM Activin A + 60 nM binder over Follistatin-288 surface
Method: as §1

[6] = target: T1, Activin A; assay: SPR, 5 nM Activin A + 15 nM binder over Follistatin-288 surface
Method: as §1

[7] = target: T1, Activin A; assay: SPR, 5 nM Activin A + 15 nM binder over hActRIIA-hFc surface
Method: as §1

[8] = target: T1, Activin A; assay: SPR, 5 nM Activin A + 7.5 nM binder over Follistatin-288 surface
Method: as §1

[9] = target: T1, Activin A; assay: SPR, 5 nM Activin A + 60 nM binder over hActRIIA-hFc surface
Method: as §1

[10] = target: T1, Activin A; assay: SPR, 5 nM Activin A + 3.75 nM binder over hActRIIA-hFc surface
Method: as §1

[11] = target: T1, Activin A; assay: SPR, 5 nM Activin A + 0.00 nM binder (no inhibitor) over hActRIIA-hFc surface
Method: as §1

[12] = target: T1, Activin A; assay: SPR, 5 nM Activin A + 1.88 nM binder over hActRIIA-hFc surface
Method: as §1

[13] = target: T1, Activin A; assay: SPR, 5 nM Activin A + 0.94 nM binder over Follistatin-288 surface
Method: as §1

[14] = target: T1, Activin A; assay: SPR, 5 nM Activin A + 1.88 nM binder over Follistatin-288 surface
Method: as §1

[15] = target: T1, Activin A; assay: SPR, 5 nM Activin A + 0.94 nM binder over hActRIIA-hFc surface
Method: as §1

[16] = target: T1, Activin A; assay: SPR, 5 nM Activin A + 3.75 nM binder over Follistatin-288 surface
Method: as §1

[17] = target: T1, Activin A; assay: SPR, 5 nM Activin A + 7.50 nM binder over hActRIIA-hFc surface
Method: as §1

[18] = target: T1, Activin A; assay: SPR, 5 nM Activin A + 0 nM binder (no inhibitor) over Follistatin-288 surface
Method: as §1

[19] = target: T1, Activin A; assay: SPR, 5 nM Activin A + 30 nM binder over hActRIIA-hFc surface
Method: as §1

[20] = target: T4, Activin A (R&D Systems, #338-AC) (human, UniProt P08476 311-426); assay: SPR blocking: 5 nM Activin A + 15 nM binder over hActRIIB-hFc (Control 4) surface
T4 construct: Bought protein; also called inhibin-βA dimer; homodimer of two βA subunits
T4 sequence: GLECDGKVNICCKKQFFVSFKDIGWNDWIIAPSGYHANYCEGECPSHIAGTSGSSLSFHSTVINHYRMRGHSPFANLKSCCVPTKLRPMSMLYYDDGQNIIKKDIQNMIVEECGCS
Method: as §1

[21] = target: T4, Activin A (R&D Systems, #338-AC); assay: SPR blocking: 5 nM Activin A + 3.75 nM binder over hActRIIB-hFc (Control 4) surface
[22] = target: T4, Activin A (R&D Systems, #338-AC); assay: SPR blocking: 5 nM Activin A + 7.50 nM binder over hActRIIB-hFc (Control 4) surface
Method: as §1

[23] = target: T4, Activin A (R&D Systems, #338-AC); assay: SPR blocking: 5 nM Activin A + 0.94 nM binder over hActRIIB-hFc (Control 4) surface
Method: as §1

[24] = target: T4, Activin A (R&D Systems, #338-AC); assay: SPR blocking: 5 nM Activin A + 30 nM binder over hActRIIB-hFc (Control 4) surface
Method: as §1

[25] = target: T4, Activin A (R&D Systems, #338-AC); assay: SPR blocking: 5 nM Activin A + 0.00 nM binder over hActRIIB-hFc (Control 4) surface
Method: as §1

[26] = target: T4, Activin A (R&D Systems, #338-AC); assay: SPR blocking: 5 nM Activin A + 60 nM binder over hActRIIB-hFc (Control 4) surface
Method: as §1

[27] = target: T4, Activin A (R&D Systems, #338-AC); assay: SPR blocking: 5 nM Activin A + 1.88 nM binder over hActRIIB-hFc (Control 4) surface
Method: as §1

[28] = target: T5, Activin B (human, UniProt P09529 293-407); assay: cell-based or functional assay
T5 chain: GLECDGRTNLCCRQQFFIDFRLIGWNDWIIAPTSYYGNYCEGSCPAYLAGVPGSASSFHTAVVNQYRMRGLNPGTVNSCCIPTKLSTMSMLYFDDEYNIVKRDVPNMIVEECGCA

B1: H4H10446P2 (antibody, human IgG4, V domains shown)
VH: QVQLQESGPGLVKPSETLSLTCTVSGGSFSSHFWSWIRQPPGKGLEWIGYILYTGGTSFNPSLKSRVSMSVGTSKNQFSLKLSSVTAADTAVYYCARARSGITFTGIIVPGSFDIWGQGTMVTVSS
VL: not shown
notes: also called mAb2
[1]
  IC50, inhibition of 100 pM Activin A in A204/CAGAx12-Luc luciferase bioassay: 4.7e-11 M
[2]
  IC50, inhibition of 30 pM Activin AB in A204/CAGAx12-Luc luciferase bioassay: 8.2e-09 M
[3]
  IC50, inhibition of 4 nM Activin AC in A204/CAGAx12-Luc luciferase bioassay: 5.6 nM
[4]
  % bound RU w/ no inhibitor: 3%
[5]
  % bound RU w/ no inhibitor: 3%
[6]
  % bound RU w/ no inhibitor: 3%
[7]
  % bound RU w/ no inhibitor: 108%
[8]
  % bound RU w/ no inhibitor: 3%
[9]
  % bound RU w/ no inhibitor: 118%
[10]
  % bound RU w/ no inhibitor: 85%
[11]
  % bound RU w/ no inhibitor: 100%
[12]
  % bound RU w/ no inhibitor: 115%
[13]
  % bound RU w/ no inhibitor: 77%
[14]
  % bound RU w/ no inhibitor: 54%
[15]
  % bound RU w/ no inhibitor: 111%
[16]
  % bound RU w/ no inhibitor: 7%
[17]
  % bound RU w/ no inhibitor: 94%
[18]
  % bound RU w/ no inhibitor: 100%
[19]
  % bound RU w/ no inhibitor: 98%

B2: H4H10423P (antibody, human IgG4, V domains shown)
VH: QVQLQQSGPGLLKPSQTLSLTCAISGDSVSSNSAAWSWIRQSPSRGLEWLGRTYYRANWFNDYALSVKSRITINPVTSTNHFSLQLHSVTPEDTAVYYCAREGALGYYFDSWGQGTLVTVSS
VL: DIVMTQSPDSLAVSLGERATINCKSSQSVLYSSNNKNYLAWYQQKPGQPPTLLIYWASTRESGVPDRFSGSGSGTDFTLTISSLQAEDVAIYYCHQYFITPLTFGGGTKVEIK
[20]
  % bound RU w/ no inhibitor: 42%
[21]
  % bound RU w/ no inhibitor: 47%
[22]
  % bound RU w/ no inhibitor: 42%
[23]
  % bound RU w/ no inhibitor: 93%
[24]
  % bound RU w/ no inhibitor: 41%
[25]
  % bound RU w/ no inhibitor: 100%
[26]
  % bound RU w/ no inhibitor: 41%
[27]
  % bound RU w/ no inhibitor: 78%

B3: H4H10442P2 (antibody, human IgG4, V domains shown)
VH: QVQLQESGPGLVKPSETLSITCTVSGGSFSSHFWTWIRQPPGKGLEWIGYLHYSGGTSYNPSLKSRVIISVDTSKNQFSLKLNSVTAADTAVYYCARARSGITFGGLIVPGSFDIWGQGTMVTVSS
VL: not shown
[20]
  % bound RU w/ no inhibitor: 115%
[21]
  % bound RU w/ no inhibitor: 88%
[22]
  % bound RU w/ no inhibitor: 103%
[23]
  % bound RU w/ no inhibitor: 110%
[24]
  % bound RU w/ no inhibitor: 122%
[25]
  % bound RU w/ no inhibitor: 100%
[26]
  % bound RU w/ no inhibitor: 124%
[27]
  % bound RU w/ no inhibitor: 106%

B4: H4H10446P2 (antibody, human IgG4, V domains shown)
VH: QVQLQESGPGLVKPSETLSLTCTVSGGSFSSHFWSWIRQPPGKGLEWIGYILYTGGTSFNPSLKSRVSMSVGTSKNQFSLKLSSVTAADTAVYYCARARSGITFTGIIVPGSFDIWGQGTMVTVSS
VL: not shown
notes: also called mAb2
[20]
  % bound RU w/ no inhibitor: 115%
[21]
  % bound RU w/ no inhibitor: 76%
[22]
  % bound RU w/ no inhibitor: 95%
[23]
  % bound RU w/ no inhibitor: 107%
[24]
  % bound RU w/ no inhibitor: 89%
[25]
  % bound RU w/ no inhibitor: 100%
[26]
  % bound RU w/ no inhibitor: 129%
[27]
  % bound RU w/ no inhibitor: 105%

B5: H4H10433P2 (antibody, human IgG4, V domains shown)
VH: EVQLVESGGGLVQAGRSLRLSCEASGFTFDDYGMHWVRQGPGKGLEWVSGISWNSGNIDYADSVKGRFTISRDNAKTSLYLQMNSLKTDDTALYFCAKDAVGFNWNYFLFDYWGQGTLVTVSS
VL: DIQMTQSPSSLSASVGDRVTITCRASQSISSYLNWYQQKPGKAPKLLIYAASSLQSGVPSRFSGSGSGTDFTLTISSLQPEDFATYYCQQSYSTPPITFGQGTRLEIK
[28]
  IC50, inhibition of 50 pM Activin B in A204/CAGAx12-Luc luciferase bioassay: 1e-07 M
[1]
  IC50, inhibition of 100 pM Activin A in A204/CAGAx12-Luc luciferase bioassay: 1.5e-10 M

B6: H4H10429P (antibody, human IgG4, V domains shown)
VH: QVQLVESGGGVVQPGRSLRLSCVASGFTVSSYGIHWVRQAPGKGLEWVSVIWYDGRNKDYADSVKGRFTISRDNSKNTVYLEMKGLRAEDTALYYCARDKTGDFDSWGQGTLVTVSS
VL: DIQMTQSPSSLSASVGDRVTITCRASQNINSFLSWYQQKPGKAPKFLIYDASSIQSGAPSRFSGSGSGTDFTLTISSLQPEDFATYYCQQSYSSPFTFGQGTKLEIK
[20]
  % bound RU w/ no inhibitor: 2%
[21]
  % bound RU w/ no inhibitor: 19%
[22]
  % bound RU w/ no inhibitor: 2%
[23]
  % bound RU w/ no inhibitor: 87%
[24]
  % bound RU w/ no inhibitor: 2%
[25]
  % bound RU w/ no inhibitor: 100%
[26]
  % bound RU w/ no inhibitor: 3%
[27]
  % bound RU w/ no inhibitor: 67%

B7: H4H10436P2 (antibody, human IgG4, V domains shown)
VH: QVQLVESGGGVVQPGRSLRLTCVASGFTVSSYGMHWVRQAPGKGLEWVAVMFYDESKKYYADSVKGRFTISRDNSKNTLYLQMNSLRVEDTAVYYCARDEQLDFEYWGQGTLVTVSS
VL: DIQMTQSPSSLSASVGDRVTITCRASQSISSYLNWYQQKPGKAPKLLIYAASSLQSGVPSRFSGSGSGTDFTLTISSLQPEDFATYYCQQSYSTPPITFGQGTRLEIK
[20]
  % bound RU w/ no inhibitor: 2%
[21]
  % bound RU w/ no inhibitor: 19%
[22]
  % bound RU w/ no inhibitor: 3%
[23]
  % bound RU w/ no inhibitor: 80%
[24]
  % bound RU w/ no inhibitor: 3%
[25]
  % bound RU w/ no inhibitor: 100%
[26]
  % bound RU w/ no inhibitor: 4%
[27]
  % bound RU w/ no inhibitor: 60%

B8: H4H10440P2 (antibody, human IgG4, V domains shown)
VH: EVQLVESGGGVVQPGGSLRLSCAASTFTFDDFAMHWVRQAPGKGLEWVSLITGDGGSTYYADPVKGRFTISRDNSKNSLYLQMNSLRTEDTALYYCVKDWWIAARPDYYYYGMDVWGQGTTVTVSS
VL: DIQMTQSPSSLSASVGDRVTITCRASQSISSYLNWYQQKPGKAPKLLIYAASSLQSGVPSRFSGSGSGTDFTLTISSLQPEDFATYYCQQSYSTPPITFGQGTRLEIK
[20]
  % bound RU w/ no inhibitor: 4%
[21]
  % bound RU w/ no inhibitor: 19%
[22]
  % bound RU w/ no inhibitor: 7%
[23]
  % bound RU w/ no inhibitor: 79%
[24]
  % bound RU w/ no inhibitor: 4%
[25]
  % bound RU w/ no inhibitor: 100%
[26]
  % bound RU w/ no inhibitor: 4%
[27]
  % bound RU w/ no inhibitor: 58%

B9: H4H10430P (antibody, human IgG4, V domains shown)
VH: EVQLVESGGGLVQPGRSLRLSCKASGFAFDDFAMHWVRQAPGKGLEWVSGIVWNSGDIGYADSVKGRFTISRDNAKNSLYLQLNSLRTEDTALYFCVKDMVRGLMGFNYYGMDVWGQGTTVTVSS
VL: EIVLTQSPATLSLSPGERATLSCRASQTISTYLVWYRQRPGQAPSLLIYDASNRATDIPARFSGSGSGTDFTLTISSLEPEDFAVYYCQQRSNWPITFGQGTRLEIK
notes: also called mAb1
[20]
  % bound RU w/ no inhibitor: 3%
[21]
  % bound RU w/ no inhibitor: 20%
[22]
  % bound RU w/ no inhibitor: 4%
[23]
  % bound RU w/ no inhibitor: 80%
[24]
  % bound RU w/ no inhibitor: 3%
[25]
  % bound RU w/ no inhibitor: 100%
[26]
  % bound RU w/ no inhibitor: 3%
[27]
  % bound RU w/ no inhibitor: 62%
